From US6380373B1, “Steroid receptor coactivator compositions and methods of use” (Baylor College of Medicine, priority 1995, dated 2002)

T1: hPR (Homo sapiens, UniProt P06401)
T1 construct: expressed in transfected cells; host or cells: HeLa
T1 sequence (P06401 1-933): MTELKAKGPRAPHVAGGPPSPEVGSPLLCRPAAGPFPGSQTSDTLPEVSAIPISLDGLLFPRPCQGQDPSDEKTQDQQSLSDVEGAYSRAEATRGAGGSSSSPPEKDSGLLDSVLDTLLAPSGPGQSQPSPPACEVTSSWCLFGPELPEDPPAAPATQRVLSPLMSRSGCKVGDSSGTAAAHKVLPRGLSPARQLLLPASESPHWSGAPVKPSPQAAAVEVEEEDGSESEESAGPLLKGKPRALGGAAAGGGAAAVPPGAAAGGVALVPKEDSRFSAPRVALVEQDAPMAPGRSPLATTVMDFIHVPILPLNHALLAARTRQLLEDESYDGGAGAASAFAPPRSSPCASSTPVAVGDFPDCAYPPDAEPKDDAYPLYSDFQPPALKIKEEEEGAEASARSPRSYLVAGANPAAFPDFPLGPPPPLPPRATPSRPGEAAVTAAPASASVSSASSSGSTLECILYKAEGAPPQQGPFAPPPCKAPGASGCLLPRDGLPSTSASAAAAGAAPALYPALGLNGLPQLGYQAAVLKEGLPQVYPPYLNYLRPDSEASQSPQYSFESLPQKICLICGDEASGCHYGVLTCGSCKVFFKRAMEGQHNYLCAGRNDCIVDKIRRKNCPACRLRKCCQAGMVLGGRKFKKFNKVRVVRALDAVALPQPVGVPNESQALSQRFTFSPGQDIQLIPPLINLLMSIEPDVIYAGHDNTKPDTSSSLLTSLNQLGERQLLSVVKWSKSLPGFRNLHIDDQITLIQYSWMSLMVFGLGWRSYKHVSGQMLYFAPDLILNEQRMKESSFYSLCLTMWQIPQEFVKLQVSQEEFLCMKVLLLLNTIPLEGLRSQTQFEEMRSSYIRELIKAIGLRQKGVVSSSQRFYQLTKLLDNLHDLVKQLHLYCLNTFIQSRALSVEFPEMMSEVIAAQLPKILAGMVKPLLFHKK

T2: GST-ER (Homo sapiens, UniProt P03372)
T2 construct: GST; made in house
T2 sequence (P03372 1-595): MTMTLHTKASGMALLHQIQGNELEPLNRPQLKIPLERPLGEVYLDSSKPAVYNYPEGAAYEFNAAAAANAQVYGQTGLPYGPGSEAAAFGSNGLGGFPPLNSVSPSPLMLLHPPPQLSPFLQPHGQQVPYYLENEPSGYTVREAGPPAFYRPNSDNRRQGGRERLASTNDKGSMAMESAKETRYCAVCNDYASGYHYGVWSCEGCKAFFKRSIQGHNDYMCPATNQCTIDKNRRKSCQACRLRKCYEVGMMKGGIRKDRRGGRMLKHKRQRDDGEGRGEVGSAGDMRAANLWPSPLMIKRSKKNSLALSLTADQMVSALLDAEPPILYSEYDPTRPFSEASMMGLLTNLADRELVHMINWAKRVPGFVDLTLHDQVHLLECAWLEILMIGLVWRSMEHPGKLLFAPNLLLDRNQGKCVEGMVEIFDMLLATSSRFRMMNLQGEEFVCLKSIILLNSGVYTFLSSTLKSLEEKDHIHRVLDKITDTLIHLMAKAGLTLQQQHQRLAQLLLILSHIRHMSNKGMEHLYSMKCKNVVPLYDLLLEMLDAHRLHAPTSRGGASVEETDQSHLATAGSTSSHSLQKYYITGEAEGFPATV

T3: GST-TR (Homo sapiens, UniProt P10828)
T3 construct: GST; made in house
T3 sequence (P10828 1-461): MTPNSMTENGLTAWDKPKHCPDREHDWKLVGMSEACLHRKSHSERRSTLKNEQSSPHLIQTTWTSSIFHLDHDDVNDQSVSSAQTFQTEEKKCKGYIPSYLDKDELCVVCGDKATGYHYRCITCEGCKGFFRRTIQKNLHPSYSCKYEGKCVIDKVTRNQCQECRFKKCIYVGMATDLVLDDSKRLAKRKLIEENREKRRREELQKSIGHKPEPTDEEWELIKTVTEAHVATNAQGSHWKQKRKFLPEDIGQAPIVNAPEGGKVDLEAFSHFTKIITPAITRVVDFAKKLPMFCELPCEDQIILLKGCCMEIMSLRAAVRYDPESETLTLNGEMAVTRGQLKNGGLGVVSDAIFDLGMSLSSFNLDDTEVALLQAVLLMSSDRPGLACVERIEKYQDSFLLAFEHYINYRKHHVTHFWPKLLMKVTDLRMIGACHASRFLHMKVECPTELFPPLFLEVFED

T4: TR (Homo sapiens, UniProt P10828)
T4 sequence (P10828 1-461): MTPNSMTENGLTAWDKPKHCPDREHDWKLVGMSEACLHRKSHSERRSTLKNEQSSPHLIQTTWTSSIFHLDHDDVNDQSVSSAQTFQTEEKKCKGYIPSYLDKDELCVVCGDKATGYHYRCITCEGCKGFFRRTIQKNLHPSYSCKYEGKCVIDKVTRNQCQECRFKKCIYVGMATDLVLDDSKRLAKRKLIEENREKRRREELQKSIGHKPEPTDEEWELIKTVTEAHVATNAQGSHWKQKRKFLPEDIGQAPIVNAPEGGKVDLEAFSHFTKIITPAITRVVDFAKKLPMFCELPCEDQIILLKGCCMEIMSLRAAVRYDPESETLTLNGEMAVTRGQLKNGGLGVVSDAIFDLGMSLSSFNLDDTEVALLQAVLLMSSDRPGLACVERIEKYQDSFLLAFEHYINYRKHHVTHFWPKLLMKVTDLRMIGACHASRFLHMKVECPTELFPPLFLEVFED


Legend:
hPR [1] = molecular target: T1, hPR; assay: Transient transfection CAT reporter assay, hPRB with PRE2-TATA-CAT in HeLa cells; assay type: cell-based; details: HeLa cells, PRE2-TATA-CAT, 2×10^−8 M R5020, without SRC-1
Experimental: (§1) Lipofectin (GibcoBRL) was selected for transfection of Hela cells.
To further investigate the role of SRC-1 in receptor transactivation of target gene expression, transient transfection assays were carried out in mammalian cell lines. HeLa cells were cotransfected with mammalian expression vectors for full-length SRC-1 and hPRB together with a plasmid containing two copies of the progesterone-responsive DNA element (PRE) inserted in front of the TATA box of the E1b adenovirus, linked to the chloramphenicol acetyl transferase (CAT) reporter gene, PRE2-TATA-CAT.
Cells were harvested 42 h after transfection and the chloramphenicol acetyl transferase (CAT) activity determined using 8 μg of protein extract.

GST-ER = molecular target: T2, GST-ER; assay: In vitro interaction with baculovirus expressed GST-ER; assay type: binding
Text: (§2) Thus, we investigated the effect of SRC-1 expression on the transcriptional activity of other intracellular receptors.

GST-TR = molecular target: T3, GST-TR; assay: In vitro interaction with baculovirus expressed GST-TR; assay type: binding
Text: as §2

hPR [2] = molecular target: T1, hPR; assay: Dominant-negative CAT assay PR/PRE2-tk-CAT with SRC-1(0.8); assay type: cell-based; details: Lmtk- cells
Experimental: as §1
(§3) To further elucidate the mechanism of SRC-1 action, the effect of the N-terminal deletion mutant of SRC-1, SRC-1(0.8), on receptor transactivation was examined. The amino acid sequence from 865-1061, which contains the region that binds to the receptor, was cloned in frame to a mammalian expression vector that provided an exogenous AUG codon.
(§4) Lmtk^− cells were transfected with 5 μg of steroid receptors cDNAs expression vectors and their reporters, PR/PRE2-tk-CAT and TR§/DR4-tk-CAT, along with 10 μg of SRC-1(0.8) or empty expression vector and then treated with hormones (2×10^−8 M). The reporter CAT activity was determined using 60 μg of protein extract.

TR = molecular target: T4, TR; assay: Dominant-negative CAT assay TR/DR4-tk-CAT with SRC-1(0.8) in Lmtk- cells; assay type: cell-based; set-up: expressed in transfected cells; host or cells: Lmtk- (mouse fibroblast) cells; details: 10 μg SRC-1(0.8), hormone 2×10^−8 M
Experimental: as §1, §3, §4

Row | induction of hPR activity (CAT reporter) (hPR [1]) [fold] | interaction with GST-ER in vitro (GST-ER) | interaction with GST-TR in vitro (GST-TR) | effect on hormone induced transcriptional activity of hPR (hPR [2]; 10 μg SRC-1(0.8), hormone 2×10^−8 M) | effect on the hormone-free receptor (hPR [2]; no hormone) | effect on ligand-induced transcriptional activity of TR (TR) | Molecule
1 | ~5 | – | – | – | – | – | CCC(=O)[C@@]1(C)CC[C@H]2[C@@H]3CCC4=CC(=O)CCC4=C3CC[C@@]21C [R5020, reference compound]
2 | – | able to interact | able to interact | efficiently reduced | No major effect | inhibits | SRC-1(0.8): N-terminal truncated form of SRC-1, amino acids 865-1061, containing the receptor-binding region; dominant-negative repressor (protein, UniProt Q15788 865-1061, looked up, fragment) LNRLPELELEAIDNQFGQPGTGDQIPWTNNTVTAINQSKSEDQCISSQLDELLCPPTTVEGRNDEKALLEQLVSFLSGKDETELAELDRALGIDKLVQGGGLDVLSERFPPQQATPPLIMEERPNLYSQPYSSPSPTANLPSPFQGMVRQKPSLGTMPVQVTPPRGAFSPGMGMQPRQTLNRPPAAPNQLRLQLQQR
